Patent US20140294834A1

Target: his tagged cMET (UniProt P08581)
Experiment: BLI (Fortebio Octet), antibody loaded on Protein A tips, his tagged cMET in solution, 1:1 fit

Kd: 1.2 nM
Substance: Onartuzumab (antibody)
